First the molecules themselves.
T1: Cynomolgus TCR(AEA41865/AEA41866)-zipper protein (cynomolgus monkey)
T1 construct: also called cyTCR-zipper protein; cynoTCR zipper
T1 TCR alpha: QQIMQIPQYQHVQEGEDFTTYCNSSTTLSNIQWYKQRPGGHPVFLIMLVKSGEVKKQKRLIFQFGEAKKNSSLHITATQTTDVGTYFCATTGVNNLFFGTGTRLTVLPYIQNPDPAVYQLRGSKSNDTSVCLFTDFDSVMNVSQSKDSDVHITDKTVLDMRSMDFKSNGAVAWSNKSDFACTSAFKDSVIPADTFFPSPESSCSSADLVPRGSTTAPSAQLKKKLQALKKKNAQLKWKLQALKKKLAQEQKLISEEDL
T1 TCR beta: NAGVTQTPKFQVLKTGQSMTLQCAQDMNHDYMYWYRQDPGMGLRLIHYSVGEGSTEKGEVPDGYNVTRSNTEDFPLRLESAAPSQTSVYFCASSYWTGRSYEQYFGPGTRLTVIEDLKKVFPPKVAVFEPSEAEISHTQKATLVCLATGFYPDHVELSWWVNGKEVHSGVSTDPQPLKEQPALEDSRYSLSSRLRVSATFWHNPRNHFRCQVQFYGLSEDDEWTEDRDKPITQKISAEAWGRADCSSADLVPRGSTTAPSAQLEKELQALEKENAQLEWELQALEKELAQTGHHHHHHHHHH

T2: Human T cell receptor on human primary T cells (human, UniProt P01848 1-140; P01850 1-176)
T2 TCR alpha (looked up): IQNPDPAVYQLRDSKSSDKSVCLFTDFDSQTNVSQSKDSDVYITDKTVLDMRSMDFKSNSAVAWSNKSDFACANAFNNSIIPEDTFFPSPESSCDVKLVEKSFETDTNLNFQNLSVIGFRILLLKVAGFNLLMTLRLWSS
T2 TCR beta (looked up): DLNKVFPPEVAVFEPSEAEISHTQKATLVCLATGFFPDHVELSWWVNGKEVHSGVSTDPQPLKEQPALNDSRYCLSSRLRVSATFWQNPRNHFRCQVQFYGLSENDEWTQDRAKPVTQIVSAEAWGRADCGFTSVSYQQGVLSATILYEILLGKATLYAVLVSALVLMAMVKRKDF

B1: T017000161 (VHH)
VHH: EVQLVESGGGVVQPGGSLRLSCVASGEVHKINFLGWYRQAPGKEREKVAHISIGDQTDYADSAKGRFTISRDESKNMVYLQMNSLRPEDTALYFCRAFSRIYPYDYWGQGTLVTVSS
B2: T017000208 (VHH)
VHH: EVQLVESGGGVVQPGGSLRLSCVASYDVHKINFLGWYRQAPGKEREKVAHISIGDQTDYADSAKGRFTISRDESKNMVYLQMNSLRPEDTALYFCRAFSRIYPYDYWGQGTLVTVSS
B3: T017000166 (VHH)
VHH: EVQLVESGGGVVQPGGSLRLSCVASGDVHKINFYGWYRQAPGKEREKVAHISIGDQTDYADSAKGRFTISRDESKNMVYLQMNSLRPEDTALYFCRAFSRIYPYDYWGQGTLVTVSS
B4: T017000190 (VHH)
VHH: EVQLVESGGGVVQPGGSLRLSCVASGDVHKINFLSWYRQAPGKEREKVAHISIGDQTDYADSAKGRFTISRDESKNMVYLQMNSLRPEDTALYFCRAFSRIYPYDYWGQGTLVTVSS
B5: T017000173 (VHH)
VHH: EVQLVESGGGVVQPGGSLRLSCVASGDVHKINVLGWYRQAPGKEREKVAHISIGDQTDYADSAKGRFTISRDESKNMVYLQMNSLRPEDTALYFCRAFSRIYPYDYWGQGTLVTVSS
B6: T017000196 (VHH)
VHH: EVQLVESGGGVVQPGGSLRLSCVASGDVHKIFFLGWYRQAPGKEREKVAHISIGDQTDYADSAKGRFTISRDESKNMVYLQMNSLRPEDTALYFCRAFSRIYPYDYWGQGTLVTVSS
B7: T017000179 (VHH)
VHH: EVQLVESGGGVVQPGGSLRLSCVASGDVHKINFLTWYRQAPGKEREKVAHISIGDQTDYADSAKGRFTISRDESKNMVYLQMNSLRPEDTALYFCRAFSRIYPYDYWGQGTLVTVSS
B8: T017000185 (VHH)
VHH: EVQLVESGGGVVQPGGSLRLSCVASGDVHKINFFGWYRQAPGKEREKVAHISIGDQTDYADSAKGRFTISRDESKNMVYLQMNSLRPEDTALYFCRAFSRIYPYDYWGQGTLVTVSS
B9: T017000174 (VHH)
VHH: EVQLVESGGGVVQPGGSLRLSCVASWDVHKINFLGWYRQAPGKEREKVAHISIGDQTDYADSAKGRFTISRDESKNMVYLQMNSLRPEDTALYFCRAFSRIYPYDYWGQGTLVTVSS
B10: T017000170 (VHH)
VHH: EVQLVESGGGVVQPGGSLRLSCVASGDVHKINYLGWYRQAPGKEREKVAHISIGDQTDYADSAKGRFTISRDESKNMVYLQMNSLRPEDTALYFCRAFSRIYPYDYWGQGTLVTVSS
B11: T017000164 (VHH)
VHH: EVQLVESGGGVVQPGGSLRLSCVASGYVHKINFLGWYRQAPGKEREKVAHISIGDQTDYADSAKGRFTISRDESKNMVYLQMNSLRPEDTALYFCRAFSRIYPYDYWGQGTLVTVSS
B12: T017000176 (VHH)
VHH: EVQLVESGGGVVQPGGSLRLSCVASGDVHKLNFLGWYRQAPGKEREKVAHISIGDQTDYADSAKGRFTISRDESKNMVYLQMNSLRPEDTALYFCRAFSRIYPYDYWGQGTLVTVSS
B13: T017000188 (VHH)
VHH: EVQLVESGGGVVQPGGSLRLSCVASGAVHKINFLGWYRQAPGKEREKVAHISIGDQTDYADSAKGRFTISRDESKNMVYLQMNSLRPEDTALYFCRAFSRIYPYDYWGQGTLVTVSS
B14: T017000163 (VHH)
VHH: EVQLVESGGGVVQPGGSLRLSCVASGDVHQINFLGWYRQAPGKEREKVAHISIGDQTDYADSAKGRFTISRDESKNMVYLQMNSLRPEDTALYFCRAFSRIYPYDYWGQGTLVTVSS
notes: also called T017000745
B15: T017000177 (VHH)
VHH: EVQLVESGGGVVQPGGSLRLSCVASGSVHKINFLGWYRQAPGKEREKVAHISIGDQTDYADSAKGRFTISRDESKNMVYLQMNSLRPEDTALYFCRAFSRIYPYDYWGQGTLVTVSS
B16: T017000180 (VHH)
VHH: EVQLVESGGGVVQPGGSLRLSCVASQDVHKINFLGWYRQAPGKEREKVAHISIGDQTDYADSAKGRFTISRDESKNMVYLQMNSLRPEDTALYFCRAFSRIYPYDYWGQGTLVTVSS
B17: T017000200 (VHH)
VHH: EVQLVESGGGVVQPGGSLRLSCVASGDVHKINFLRWYRQAPGKEREKVAHISIGDQTDYADSAKGRFTISRDESKNMVYLQMNSLRPEDTALYFCRAFSRIYPYDYWGQGTLVTVSS
B18: T017000628 (bispecific antibody)
chain: DVQLVESGGGVVQPGGSLRLSCVASYDVHKINFYGWYRQAPGKEREKVAHISIGDQTDYADSAKGRFTISRDESKNTVYLQMNSLRPEDTALYYCRALSKIWPYDYWGQGTLVTVSSGGGGSGGGGSGGGGSGGGGSGGGGSGGGGSGGGGSEVQLVESGGGLVQAGGSLRLSCAASGITSKINDMGWYRQTPGNYREWVASITATGTTNYRDSVKGRFTISRDNAKSTVYLQMNSLKPEDTTVYYCNTFPPISNFWGQGTLVTVSSA
B19: T017000232 (VHH)
VHH: EVQLVESGGGVVQPGGSLRLSCVASGDVHKINFLGWYRQAPGKEREKVAHISIGDQVDYADSAKGRFTISRDESKNMVYLQMNSLRPEDTALYFCRAFSRIYPYDYWGQGTLVTVSS
B20: T017000231 (VHH)
VHH: EVQLVESGGGVVQPGGSLRLSCVASGDVHKINFLGWYRQAPGKEREKVAVISIGDQTDYADSAKGRFTISRDESKNMVYLQMNSLRPEDTALYFCRAFSRIYPYDYWGQGTLVTVSS
B21: T017000223 (VHH)
VHH: EVQLVESGGGVVQPGGSLRLSCVASGDVHKINFLGWYRQAPGKEREKVAHISIGDQADYADSAKGRFTISRDESKNMVYLQMNSLRPEDTALYFCRAFSRIYPYDYWGQGTLVTVSS
B22: T017000233 (VHH)
VHH: EVQLVESGGGVVQPGGSLRLSCVASGDVHKINFLGWYRQAPGKEREKVAHISIGDQSDYADSAKGRFTISRDESKNMVYLQMNSLRPEDTALYFCRAFSRIYPYDYWGQGTLVTVSS
Wherever % Lysis, T cell mediated MOLM-13 cell killing, cynomolgus primary T cells, E:T 10:1 is given: test concentration or dose not given here.
Wherever % Lysis, T cell mediated MOLM-13 cell killing, human primary T cells, E:T 10:1 is given: test concentration or dose not given here.

For the first test, the target named is T1, Cynomolgus …. Kind of test: SPR ProteOn off-rate screen.
Excerpt: (§1) Unique ISVD clones, i.e. clones with a unique sequence, were subsequently selected and screened to determine their off-rate. To this purpose, the ISVD containing periplasmic extracts were screened on huTCR-zipper and cyTCR-zipper protein by SPR on a ProteOn XPR36 instrument. The zipper proteins were immobilized on a GLC sensor chip (between 4300 and 5100RU) via amine coupling chemistry, using EDC/sulfo-NHS for activation of the carboxyl groups on the chip surface (running buffer: HBS-EP+, pH7.4). Periplasmic extracts were injected at 1/10 dilution for 2 min (at a flow rate of 45 μL/min) and dissociation was followed for 900 s. A pulse of 100 s of 3 M MgCl2 at 45 μL/min was used for regeneration. […] Processed sensorgrams were fitted with the Langmuir model (1:1 interaction) using ProteOn Manager 3.1.0 (Version 3.1.0.6) software.
For the molecule B1, the koff – broadly, the first-order rate constant of dissociation – is 0.00624 s⁻¹.
Consider B2, for which the koff is 0.0147 s⁻¹.
The molecule B3 came in with a koff of 0.00825 s⁻¹.
Molecule B4 gave an off-rate (koff) of 0.0107 s⁻¹. This koff and that of the molecule before are within 1.5-fold of each other.
As to B5, the off-rate constant (koff) was found to be 0.00903 s⁻¹.
On the same count and under the same terms, to B6 belongs 0.00419 s⁻¹.
On the same count and under the same terms, to B7 belongs 0.00775 s⁻¹; to B8, 0.0114 s⁻¹.
The molecule B9 returned an off-rate constant (koff) of 0.00791 s⁻¹. This koff and that of the molecule before are within 1.5-fold of each other.
As to B10, the koff came out at 0.00806 s⁻¹. This koff and that of the molecule before are within 1.5-fold of each other.
Regarding B11, the koff worked out at 0.00412 s⁻¹. This koff is about 2-fold lower than that of the molecule before.
Molecule B12 registered a koff of 0.00791 s⁻¹.
Take B13: the koff was 0.00389 s⁻¹.
With B14, the koff came out at 0.00642 s⁻¹. Against the preceding molecule, the koff is about 1.7-fold higher.
Still for that read-out and setting: to B15 belongs 0.00325 s⁻¹.
B16 had a koff of 0.00998 s⁻¹.
Same read-out and setting: in the case of B17 it was 0.058 s⁻¹.

For the next test, the target named is T1, Cynomolgus …. Kind of test: SPR ProteOn off-rate screen. This is another data set of the same source.
Excerpt: as §1
B14 displayed a koff of 0.00701 s⁻¹.

For a further test, the target named is T2, Human T cell receptor on human primary …. Briefly: cell-based or functional assay.
Turning to B18, the “% Lysis, T cell mediated MOLM-13 cell killing, human primary T cells, E:T 10:1” value turned out to be 39% and the “EC50 (M), T cell mediated MOLM-13 cell killing, human primary T cells, E:T 10:1” value amounted to 1.6e-10 M.

The next test addresses Cynomolgus T cell receptor on cynomolgus primary T cells (cynomolgus monkey). Briefly: cell-based or functional assay.
On to B18, for which the “% Lysis, T cell mediated MOLM-13 cell killing, cynomolgus primary T cells, E:T 10:1” value is 40% and the “EC50 (M), T cell mediated MOLM-13 cell killing, cynomolgus primary T cells, E:T 10:1” value came out at 2e-11 M.

For the next test, the target named is T1, Cynomolgus …. Briefly: SPR ProteOn off-rate screen. The source holds these as a separate data set.
Excerpt: as §1
The molecule B19 gave a koff of 0.00895 s⁻¹.
The same measure, in the same setting: to B20 belongs 0.00867 s⁻¹; to B21, 0.0109 s⁻¹.
In turn, B22 had a koff of 0.0102 s⁻¹.

Values taken from patent US20240092919A1 (Ablynx, published 2024).
